Results as given in patent US12186353B2, “Method of reducing neuronal microtubule binding protein Tau (Tau) levels” (ADAERATA, LIMITED PARTNERSHIP, priority 2018, dated 2025).

Experiments:
[1] = test system: primary RGC neuron cultures; experiment: Axonal blebs, neurite length and branching in transfected primary RGC neuron cultures of AD and tauopathy mice; assay type: cell-based, mouse; settings: for number of axonal blebs: plasmid transfection, two weeks later, vs GFP
Protocol: FIGS. 10A-H: Numb72 reduces blebbing in AD mouse model RGCs. FIG. 10A. Primary retinal cultures were performed at P8 and cells were transfected using an Amaxa™ electroporator and analysed 14 days later. Cells GFP and NF165 positive were analysed in B6129J mouse line (Control) and triple transgenic mice (3×TGAD) expressing three mutations associated with familial Alzheimer's disease (APP Swedish, MAPT P301L, and PSEN1 M146V) after transfection of GFP or Numb-72 IRES::GFP. […] FIGS. 10B-D. Quantification of relative number of axonal blebs (FIG. 10B); axon (neurites) length (FIG. 10C) and branching number (FIG. 10D) in Control (B6129J) and 3×TGAD RGC axons was performed. Control numbers were normalized to 1. Error bars represent SEM, ** p≤0.001; n.s. non-significant; Anova 2 way for blebs and Student's t test for length and branching. FIG. 10E Primary retinal culture was performed at P8 and cells were transfected using an Amaxa™ electroporator and analysed 14 days later. Cells GFP and NF165 positive were analysed in C57b6 mouse line (Control) and P301S Tau mutant (TauP301S) (model of tauopathy) after transfection of GFP or Numb-72 IRES::GFP. […] FIGS. 10F-H. Quantification of relative number of axonal blebs (FIG. 10F); axon (neurites) length (FIG. 10G) and branching number (FIG. 7H) in Control (C57b6) (Control, FIGS. 10F-H) and TauP301S (FIGS. 10F-H) RGC axons was performed. Control numbers were normalized to 1. Error bars represent SEM, * p≤0.05; n.s. non-significant Anova 2 way for blebs and Student's t test for length and branching.
Retinal tissues were isolated from eyeballs of postnatal day 7 (P7) mice, cut in small pieces and incubated in PBS containing 5 mg/ml of papain, 0.24 mg/ml of L-cysteine, 0.5 mmol/l of EDTA, and 10 U/ml of DNase I for 2×3 min. The reaction was stopped by adding Lo-Ovo solution in PBS, and 10 U/ml of DNase I. The retinal cells were mechanically dissociated by gentle pipetting and collected as a suspension. Procedures were conducted at room temperature in a laminar flow hood. After centrifugation at 1000 rpm for 11 min, cells were resuspended in RGCs media and plate on glass coverslips at 50′000 cells/coverslips on a 24 wells plate and incubated at 37° C.; 8% CO2 for 2 weeks, half media was changed every 3 days. […]
To determine the neuroprotective effects of Numb-72, the inventors prepared primary RGC neuron cultures from control mice, triple transgenic mice (3×TGAD) expressing three mutations associated with familial Alzheimer's disease (APP Swedish, MAPT P301L, and PSEN1 M146V), or a P301S Tau mutant (model of tauopathy), and then expressed GFP or Numb-72 in these neurons by plasmid transfection. Two weeks later, the length of neurites, the number of branches, and the number of axonal blebs were counted.

Tau::GFP fusion protein = experiment: Intracellular Tau::GFP fluorescence in stable inducible HEK293 cells with proteasome or lysosome inhibitor; assay type: cell-based; settings: stable inducible HEK293, Numb72 vs control empty vector, fixed 48 h after doxycycline
Protocol: FIG. 7A Stable inducible cell line HEK293 that express a Tau::GFP fusion protein was transfected with Control Myc or Numb72::Myc, and the Tau::GFP expression was activated by adding Doxycycline 6 h later. The cells were fixed 48 h later and stained for Myc. FIG. 7B. The mean intensity (±SEM) of intracellular Tau::GFP fluorescence in transfected cells was quantified. Cells were treated with vehicle, MG132 (a proteasome inhibitor, 25 uM) or Chloroquine (a lysosome inhibitor, 25 uM) for 4 h before fixation and Myc staining. Quantification represents mean intensity +/− SEM, *p≤0.01; Anova 1-way test.
The potential role of the proteasome and of the lysosome on the ability of Numb to reduce Tau levels was assessed. A stable inducible cell line (HEK293) expressing a Tau::GFP fusion protein was transfected with
Numb72 or a control empty vector. The intracellular Tau::GFP levels was compared when the cells were treated with a proteasome inhibitor (MG132), a lysosome inhibitor (Chloroquine) or a control (vehicle). […] (FIGS. 7A-B).

[2] = control, 3xTGAD and P301S RGC neurons, two weeks after transfection

B1: Numb-72: 72 kDa Numb isoform with long PTB domain and long PRR; human isoform 1 (SEQ ID NO: 1); expressed by transfection (protein)
chain: MNKLRQSFRRKKDVYVPEASRPHQWQTDEEGVRTGKCSFPVKYLGHVEVDESRGMHICEDAVKRLKAERKFFKGFFGKTGKKAVKAVLWVSADGLRVVDEKTKDLIVDQTIEKVSFCAPDRNFDRAFSYICRDGTTRRWICHCFMAVKDTGERLSHAVGCAFAACLERKQKREKECGVTATFDASRTTFTREGSFRVTTATEQAEREEIMKQMQDAKKAETDKIVVGSSVAPGNTAPSPSSPTSPTSDATTSLEMNNPHAIPRRHAPIEQLARQGSFRGFPALSQKMSPFKRQLSLRINELPSTMQRKTDFPIKNAVPEVEGEAESISSLCSQITNAFSTPEDPFSSAPMTKPVTVVAPQSPTFQANGTDSAFHVLAKPAHTALAPVAMPVRETNPWAHAPDAANKEIAATCSGTEWGQSSGAASPGLFQAGHRRTPSEADRWLEEVSKSVRAQQPQASAAPLQPVLQPPPPTAISQPASPFQGNAFLTSQPVPVGVVPALQPAFVPAQSYPVANGMPYPAPNVPVVGITPSQMVANVFGTAGHPQAAHPHQSPSLVRQQTFPHYEASSATTSPFFKPPAQHLNGSAAFNGVDDGRLASADRHTEVPTGTCPVDPFEAQWAALENKSKQRTNPSPTNPFSSDLQKTFEIEL
modifications: homo sapiens
notes: 72 kDa Numb isoform with long PTB domain and long PRR; expressed by transfection
- number of axonal blebs ([1]; 3xTGAD RGC neurons): reduced back to control levels
- number of axonal blebs ([1]; P301S Tau mutant RGC neurons): reduced back to control levels
- neurite length [1, 2]: not changed in any condition
- number of branches [1, 2]: not changed in any condition
- intracellular Tau::GFP levels (Tau::GFP fusion protein): induced a decrease of Tau::GFP levels
